# Laboratory results: patent US20070286806A1, “Methods and Compositions for Modulating a Steroid Receptor” (Mount Sinai Hospital, priority 2004, published 2007)
# T1: PRA (Homo sapiens, UniProt P06401)
# T1 construct: expressed in transfected cells; host or cells: SHM (Syrian hamster myocyte) cells
# T1 sequence (P06401 1-769 isoform P06401-2): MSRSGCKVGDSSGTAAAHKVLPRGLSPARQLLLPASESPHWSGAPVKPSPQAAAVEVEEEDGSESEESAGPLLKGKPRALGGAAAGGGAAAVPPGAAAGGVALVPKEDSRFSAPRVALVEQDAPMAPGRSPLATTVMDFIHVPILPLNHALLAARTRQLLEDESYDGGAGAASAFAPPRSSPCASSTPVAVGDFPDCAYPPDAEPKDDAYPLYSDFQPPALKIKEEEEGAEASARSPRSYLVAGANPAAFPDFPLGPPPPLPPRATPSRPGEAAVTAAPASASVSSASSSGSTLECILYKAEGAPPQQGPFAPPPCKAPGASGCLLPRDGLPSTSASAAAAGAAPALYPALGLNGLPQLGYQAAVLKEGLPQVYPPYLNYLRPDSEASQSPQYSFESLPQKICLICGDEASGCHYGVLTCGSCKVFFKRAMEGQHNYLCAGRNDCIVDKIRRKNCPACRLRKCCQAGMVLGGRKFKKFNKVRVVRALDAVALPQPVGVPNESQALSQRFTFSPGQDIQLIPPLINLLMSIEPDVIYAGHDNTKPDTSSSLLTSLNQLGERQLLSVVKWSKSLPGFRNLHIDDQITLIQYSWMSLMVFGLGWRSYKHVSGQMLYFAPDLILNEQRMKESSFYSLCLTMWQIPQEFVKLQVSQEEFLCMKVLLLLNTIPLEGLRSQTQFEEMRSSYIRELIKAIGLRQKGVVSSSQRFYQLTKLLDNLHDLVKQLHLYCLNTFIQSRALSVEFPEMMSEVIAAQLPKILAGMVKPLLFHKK
# B1: polypyrimidine tract binding protein-associated splicing factor (protein)
# chain: MSRDRFRSRGGGGGGFHRRGGGGGRGGLHDFRSPPPGMGLNQNRGPMGPGPGQSGPKPPIPPPPPHQQQQQPPPQQPPPQQPPPHQPPPHPQPHQQQQPPPPPQDSSKPVVAQGPGPAPGVGSAPPASSSAPPATPPTSGAPPGSGPGPTPTPPPAVTSAPPGAPPPTPPSSGVPTTPPQAGGPPPPPAAVPGPGPGPKQGPGPGGPKGGKMPGGPKPGGGPGLSTPGGHPKPPHRGGGEPRGGRQHHPPYHQQHHQGPPPGGPGGRSEEKISDSEGFKANLSLLRRPGEKTYTQRCRLFVGNLPADITEDEFKRLFAKYGEPGEVFINKGKGFGFIKLESRALAEIAKAELDDTPMRGRQLRVRFATHAAALSVRNLSPYVSNELLEEAFSQFGPIERAVVIVDDRGRSTGKGIVEFASKPAARKAFERCSEGVFLLTTTPRPVIVEPLEQLDDEDGLPEKLAQKNPMYQKERETPPRFAQHGTFEYEYSQRWKSLDEMEKQQREQVEKNMKDAKDKLESEMEDAYHEHQANLLRQDLMRRQEELRRMEELHNQEMQKRKEMQLRQEEERRRREEEMMIRQREMEEQMRRQREESYSRMGYMDPRERDMRMGGGGAMNMGDPYGSGGQKFPPLGGGGGIGYEANPGVPPATMSGSMMGSDMRTERFGQGGAGPVGGQGPRGMGPGTPAGYGRGREEYEGPNKKPRF
# notes: expressed from transfected His-PSF vector or in vitro translated
# Molecular target: T1, PRA
# Assay: Transactivation of progesterone responsive promoters (3xPRE-Luc, MMTV-Luc) by PRA in SHM cells
# Type: cell-based
# Conditions: 10 nM progesterone, increasing dose of His-PSF vector
# Experimental: FIG. 4. PSF inhibit transactivation of PR but not estrogen receptor (ER). (A) SHM cells were transient cotransfected with PRA or PRB expression vectors with or without increasing dose (0.05, 0.1 and 0.2 μg) of His-PSF, together with 3×PRE (upper) or MMTV (lower) luciferase reporter vector. Four hours after transfection, culture medium was replaced with fresh DMEM containing 10 nM progesterone and the incubation continued for at least 30 hours. (B) SHM cells were transiently cotransfected with ERα or ERβ expression vector with (0.2 μg) or without His-PSF, together with 3×ERE luciferase reporter vector. Four hours after transfection, culture medium was replaced with fresh DMEM with (solid bar) or without (empty bar) 10 nM estrodial and incubation continued for at least 30 hours. Luciferase activity was measured and normalized by β-galatosidase activity. […]
# For immunoprecipitation of the endogenous PR and PSF, T47D cells cultured in 150 mm dishes were lysed in 800 μl NETN buffer containing 150 mM NaCl plus protease inhibitor cocktail. […] Gels were treated with Enhancer (NEN, Boston, US) dried and analyzed by autoradiography. • Cell culture and transient transfection: SHM cells and 293T cells were maintained in DMEM plus 5% FCS (Sigma) as described before (22). […] Luciferase activity was determined by using the luciferin reagent (Promega) according to manufacture's protocol. […]
molecule,measurement,value
B1,PRA transactivation of MMTV and 3xPRE promoters,potently inhibited
